Positions count from the first letter of the chain named.
T1: NIGT1.1 L25A/L39A L25A;L39A (Arabidopsis thaliana (Col-0?)) (UniProt Q9FPE8)
T1 sequence: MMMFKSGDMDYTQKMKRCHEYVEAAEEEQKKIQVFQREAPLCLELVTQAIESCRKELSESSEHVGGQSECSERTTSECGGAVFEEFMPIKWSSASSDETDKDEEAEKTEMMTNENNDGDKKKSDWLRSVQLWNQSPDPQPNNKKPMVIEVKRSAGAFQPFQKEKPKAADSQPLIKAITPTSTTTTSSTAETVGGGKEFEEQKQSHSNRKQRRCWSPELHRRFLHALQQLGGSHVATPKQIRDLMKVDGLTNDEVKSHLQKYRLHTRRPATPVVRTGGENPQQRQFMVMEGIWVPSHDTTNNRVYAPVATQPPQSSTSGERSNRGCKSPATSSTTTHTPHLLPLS

T2: NIGT1.1 WT (Arabidopsis thaliana (Col-0?)) (UniProt Q9FPE8)
T2 sequence: T1 sequence with A25L, A39L

B1: Trx-6×His-NIGT1.1^WT-6×His recombinant protein (natural protein, Arabidopsis thaliana, UniProt Q9FPE8 1-344, looked up)
chain: T1 sequence with A25L, A39L
notes: NIGT1.1, Arabidopsis thaliana, At1g25550; cDNA encoding NIGT1.1^WT cloned into pET32-b(+) by NcoI and HindIII; expected mass of the recombinant protein 57.4 kDa; Plasmid pET32-NIGT1.1; also called recombinant NIGT1.1^WT; Trx-6×His-NIGT1.1-6×His; not shown: Trx, N-terminal, kept; 6×His, N-terminal, kept; 6×His, C-terminal, kept

How the values were obtained:
[1] = target: T1, NIGT1.1 L25A/L39A L25A;L39A (Arabidopsis thaliana (Col-0?)); experiment: EMSA; details: EMSA: 15 ul reaction, 40 fmol biotin-labeled probe, 7.5-60 ng protein, 4% polyacrylamide gel; buffer, salt, pH and temperature not given (as in ref 24)
[2] = target: T2, NIGT1.1 WT (Arabidopsis thaliana (Col-0?)); experiment: EMSA; details: EMSA: 15 ul reaction, 40 fmol biotin-labeled probe, 7.5-60 ng protein, 4% polyacrylamide gel; buffer, salt, pH and temperature not given (as in ref 24)
[3] = target: the molecule itself; experiment: SEC-MALS; Shodex PROTEIN LW-803 column; 20 mM Tris-HCl (pH 7.5), 500 mM NaCl, 10% glycerol, room temperature; 1 mg/ml, 70 μl loaded; 0.8 ml/min

Molecule | binding [1] | binding [2] | stoichiometry N [3]
ACACAGGAAACAGCTATGACCATGCAACGGTTAACTATCGATTTAAATATTAATTTTCGAGGAATCCATTTTCGCCGCAAGCATCTTCCTAGTCTCTCGCTTATCACCAAAGGTTGCCGATATCCTTCCAAATGACCGCTCTACCCTTCCCTCATCTTGC (double strand) [P3-1] | binds more weakly | no binding | –
ACACAGGAAACAGCTATGACCATGAGCTCTTTTATTTTCTGGGAAACTTAAGTGAGAATGATGAATGAAGAAGAAAGAGAGGGGGAAGAGGTTTAGAGATATAAAAGGGATTAAAAAGAATATTCTTAAGGTTTCTAATTAGAATATCCTTTTTTCTCTGTCTTTCTTTCGGGAGAATATCTTCCTTTTATTCCTTTCTTATTTATTACTTTTTCGTGGTTATCTGTGGGTGAGATTATAACACATGCCTATGTCAGTTCATAAATATCAATCACAACTC (double strand) [P2 (SPX1 promoter)] | binds more weakly | binds | –
AATATTTAAATCGATAGTTAACCGTTGAGAATCTCCAAAGAATGCTTTTTTCATTGTCAACACTGGCTAGGAACCCTATATAAGCCATCGTGTGATTAATATTCAGACATCGCATGGTCATAGCTGTTTCCTGTGT (double strand) [P3-2] | binds more weakly | no binding | –
ACACAGGAAACAGCTATGACCATGCGATGTCTGAATATTAATCACACGATGGCTTATATAGGGTTCCTAGCCAGTGTTGACAATGAAAAAAGCATTCTTTGGAGATTCTCAACGGTTAACTATCGATTTAAATATTAATTTTCGAGGAATCCATTTTCGCCGCAAGCATCTTCCTAGTCTCTCGCTTATCACCAAAGGTTGCCGATATCCTTCCAAATGACCGCTCTACCCTTCCCTCATCTTGC (double strand) [P3 (NRT2.1 promoter)] | binds more weakly | binds | –
AATGAATTAAGACGCGAATCGGGAAAATTCAATAAATTGTCCATTGGGGGGTGCTTTAAAGAAAGATTGAAAGATGCCGAGGTTTATACCCTTTTCCTATCAAGAATATTCCATGGAATCCAACTACTTTTGACCCATTTGCGTATTTGTTAAATCTTTTCAGAAAATCAAAAGTGGGTAAATTGTCAAACTAGTTGTAGTATTGAACTACTATTTATTGATCATGCCATCATCCATGGTCATAGCTGTTTCCTGTGT (double strand) [P1 (SPX1 promoter)] | binds more weakly | binds | –
B1 | – | – | 2

From publication PMC7660924, “NIGT1 family proteins exhibit dual mode DNA recognition to regulate nutrient response-associated genes in Arabidopsis” (PLoS Genetics, 2020)
